Measured values taken from the Immune Epitope Database (IEDB).
pKd: −log10 of the molar value.

Experiments:
HLA-B*15:01 [1] = assay: IEDB peptide-MHC binding, purified MHC/competitive/fluorescence; filed as Kd, often an IC50 or EC50 that approximates it; ≥ and ≤ were set here for values at or beyond the usual limits of such assays; settings: source organism: Mycobacterium tuberculosis variant bovis BCG str. Pasteur 1173P2
HLA-A*26:03 = assay: as above; settings: source organism: Mycobacterium tuberculosis variant bovis BCG str. Pasteur 1173P2
HLA-A*02:06 = assay: as above; settings: source organism: Mycobacterium tuberculosis variant bovis BCG str. Pasteur 1173P2
HLA-B*18:01 [2] = assay: as above; settings: source organism: Mycobacterium tuberculosis variant bovis BCG str. Pasteur 1173P2
HLA-A*26:02 [3] = assay: as above
HLA-A*31:01 = assay: IEDB peptide-MHC binding, purified MHC/direct/fluorescence; filed as Kd, often an IC50 or EC50 that approximates it; ≥ and ≤ were set here for values at or beyond the usual limits of such assays
HLA-B*27:05 [4] = assay: as above; settings: source organism: Mycobacterium tuberculosis
HLA-A*69:01 = assay: as above
HLA-B*58:01 = assay: as above
HLA-B*46:01 = assay: as above
HLA-A*11:01 = assay: as above
HLA-B*07:02 = assay: as above
HLA-B*08:01 = assay: as above
HLA-B*08:02 = assay: as above
HLA-B*40:01 = assay: as above; settings: source organism: Mycobacterium tuberculosis
HLA-A*68:02 = assay: as above
HLA-A*01:01 = assay: as above
HLA-B*48:01 = assay: as above
HLA-B*57:01 = assay: as above
HLA-A*02:01 [5] = assay: as above; settings: source organism: Mycobacterium tuberculosis
HLA-B*08:03 = assay: as above; settings: source organism: Mycobacterium tuberculosis str. Haarlem
HLA-B*15:17 [6] = assay: as above; settings: source organism: Mycobacterium tuberculosis
HLA-A*80:01 = assay: as above
HLA-B*14:02 = assay: as above; settings: source organism: Homo sapiens
HLA-A*26:02 [7] = assay: as above; settings: source organism: Yellow fever virus
HLA-B*27:05 [8] = assay: IEDB peptide-MHC binding, purified MHC/competitive/fluorescence; filed as Kd, often an IC50 or EC50 that approximates it; ≥ and ≤ were set here for values at or beyond the usual limits of such assays; settings: source organism: Variola virus
HLA-A*26:01 [9] = assay: as above; settings: source organism: Variola virus
HLA-B*39:01 = assay: as above
HLA-B*15:09 = assay: as above
HLA-A*02:01 [10] = assay: as above; settings: source organism: Variola virus
HLA-B*15:17 [11] = assay: as above; settings: source organism: Variola virus
HLA-B*15:03 = assay: IEDB peptide-MHC binding, purified MHC/competitive/radioactivity; filed as Kd, often an IC50 or EC50 that approximates it; ≥ and ≤ were set here for values at or beyond the usual limits of such assays; settings: source organism: Vaccinia virus WR
HLA-C*07:02 = assay: IEDB peptide-MHC binding, purified MHC/direct/fluorescence; filed as Kd, often an IC50 or EC50 that approximates it; ≥ and ≤ were set here for values at or beyond the usual limits of such assays; settings: source organism: Variola virus
HLA-B*15:01 [12] = assay: as above
HLA-A*26:01 [13] = assay: as above; settings: source organism: Mycobacterium tuberculosis str. Haarlem
HLA-B*18:01 [14] = assay: as above; settings: source organism: Mycobacterium tuberculosis
HLA-B*51:01 = assay: as above; settings: source organism: Mycobacterium tuberculosis
HLA-A*03:01 = assay: as above; settings: source organism: Mycobacterium tuberculosis
[15] = source organism: Mycobacterium tuberculosis
[16] = source organism: Mycobacterium tuberculosis str. Haarlem
[17] = source organism: Camelpox virus CMS
[18] = source organism: Camelpox virus M-96
[19] = source organism: Mycobacterium tuberculosis C

Sequence: KVMVICYAY
- pKd (HLA-B*15:01 [1]): ≤ 4.70
- pKd (HLA-A*26:03): ≤ 4.70
- pKd (HLA-A*02:06): ≤ 4.70
- pKd (HLA-B*18:01 [2]): 5.48
- pKd (HLA-A*26:02 [3]; source organism: Mycobacterium tuberculosis variant bovis BCG str. Pasteur 1173P2): ≤ 4.70
- pKd (HLA-A*31:01; [15]): 5.38
- pKd (HLA-B*27:05 [4]): ≤ 4.70
- pKd (HLA-A*69:01; [15]): ≤ 4.70
- pKd (HLA-B*58:01; [15]): 6.15
- pKd (HLA-B*46:01; [15]): ≤ 4.70
- pKd (HLA-A*11:01; [15]): 6.31
- pKd (HLA-B*07:02; [15]): ≤ 4.70
- pKd (HLA-B*08:01; [16]): ≤ 4.70
- pKd (HLA-B*08:02; [16]): ≤ 4.70
- pKd (HLA-B*40:01): ≤ 4.70
- pKd (HLA-A*68:02; [15]): ≤ 4.70
- pKd (HLA-A*01:01; [15]): 4.93
- pKd (HLA-B*48:01; [15]): ≤ 4.70
- pKd (HLA-B*57:01; [15]): ≤ 4.70
- pKd (HLA-A*02:01 [5]): ≤ 4.70
- pKd (HLA-B*08:03): ≤ 4.70
- pKd (HLA-B*15:17 [6]): 5.16

Sequence: ITDFNIDTY
- pKd (HLA-A*01:01; [17]): ≥ 9.00
- pKd (HLA-A*80:01; [17]): 6.51

Sequence: LQRIHAEI
- pKd (HLA-B*14:02): 6.88

Sequence: EVDQTKIQY
- pKd (HLA-A*80:01; source organism: Yellow fever virus): ≤ 4.70
- pKd (HLA-A*26:02 [7]): 5.79

Sequence: SQIETGTPF
- pKd (HLA-B*27:05 [8]): ≤ 4.70
- pKd (HLA-A*26:01 [9]): 5.75
- pKd (HLA-B*39:01; source organism: Variola virus): 7.84
- pKd (HLA-B*15:09; source organism: Variola virus): 7.17
- pKd (HLA-A*02:01 [10]): ≤ 4.70
- pKd (HLA-B*15:17 [11]): ≤ 4.70
- pKd (HLA-A*26:02 [3]; source organism: Variola virus): 9.10
- pKd (HLA-B*15:03): 8.88
- pKd (HLA-A*31:01; [18]): ≤ 4.70
- pKd (HLA-C*07:02): ≤ 4.70
- pKd (HLA-A*69:01; [18]): ≤ 4.70
- pKd (HLA-B*58:01; [18]): ≤ 4.70
- pKd (HLA-B*46:01; [18]): 5.51
- pKd (HLA-A*11:01; [18]): ≤ 4.70
- pKd (HLA-B*07:02; [18]): ≤ 4.70
- pKd (HLA-B*15:01 [12]; [18]): 7.85
- pKd (HLA-B*08:01; source organism: Variola virus): ≤ 4.70
- pKd (HLA-B*08:02; source organism: Variola virus): ≤ 4.70
- pKd (HLA-A*68:02; [18]): ≤ 4.70
- pKd (HLA-A*01:01; [18]): ≤ 4.70
- pKd (HLA-B*48:01; [18]): 5.78
- pKd (HLA-B*57:01; [18]): ≤ 4.70

Sequence: RPAPATGAL
- pKd (HLA-B*39:01; [19]): 8.38
- pKd (HLA-B*15:09; [19]): 7.10
- pKd (HLA-A*31:01; [15]): ≤ 4.70
- pKd (HLA-B*27:05 [4]): ≤ 4.70
- pKd (HLA-A*69:01; [15]): 6.13
- pKd (HLA-B*58:01; [15]): ≤ 4.70
- pKd (HLA-A*26:01 [13]): ≤ 4.70
- pKd (HLA-B*46:01; [15]): ≤ 4.70
- pKd (HLA-A*11:01; [15]): ≤ 4.70
- pKd (HLA-B*15:01 [12]; [15]): ≤ 4.70
- pKd (HLA-B*08:01; [16]): ≤ 4.70
- pKd (HLA-B*08:02; [16]): ≤ 4.70
- pKd (HLA-B*40:01): ≤ 4.70
- pKd (HLA-A*01:01; [15]): ≤ 4.70
- pKd (HLA-B*48:01; [15]): ≤ 4.70
- pKd (HLA-B*57:01; [15]): ≤ 4.70
- pKd (HLA-A*02:01 [5]): ≤ 4.70
- pKd (HLA-B*18:01 [14]): ≤ 4.70
- pKd (HLA-B*15:17 [6]): ≤ 4.70
- pKd (HLA-B*51:01): ≤ 4.70
- pKd (HLA-A*03:01): ≤ 4.70
